Laboratory results: patent publication EP1132405A1 (Takeda Chemical Industries, Ltd., dated 2001)
Ends that are not written are not given here.

Target: rat cerebellum-derived G protein-coupled receptor protein rOT7T022L (rat, UniProt Q9EP86 1-432)
Test: cell-based or functional assay

Sequence of rat cerebellum-derived G protein-coupled receptor protein rOT7T022L (Q9EP86 whole entry, form in doubt): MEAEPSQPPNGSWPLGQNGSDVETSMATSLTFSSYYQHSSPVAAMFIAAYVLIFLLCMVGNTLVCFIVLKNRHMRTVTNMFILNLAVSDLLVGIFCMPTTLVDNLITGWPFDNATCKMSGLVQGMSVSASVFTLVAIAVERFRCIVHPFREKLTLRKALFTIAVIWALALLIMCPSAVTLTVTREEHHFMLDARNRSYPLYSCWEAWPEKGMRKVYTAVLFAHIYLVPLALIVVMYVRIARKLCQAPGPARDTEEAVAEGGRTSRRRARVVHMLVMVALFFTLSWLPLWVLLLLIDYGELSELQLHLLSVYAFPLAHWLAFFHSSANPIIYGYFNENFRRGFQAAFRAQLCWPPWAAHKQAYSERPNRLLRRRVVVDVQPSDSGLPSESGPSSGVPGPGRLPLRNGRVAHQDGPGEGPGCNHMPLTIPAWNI

IC50 of cAMP production suppression (forskolin-stimulated, cAMP EIA): 0.5 nM
Binder: MPHSFANLPLRF-NH2 [peptide MPHSFANLPLRFamide (Met-Pro-His-Ser-Phe-Ala-Asn-Leu-Pro-Leu-Arg-Phe-NH2)]
